# Source: the nanobody polyreactivity screen of Harvey et al. (2022)
# Experiment: yeast display, Sf9 membrane polyspecificity reagent, FACS + sequencing; frameworks hold sequencing errors
# In short: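 After 36–48 hours of galactose induction, yeast (Saccharomyces cerevisiae BJ5465) displaying a synthetic nanobody library were stained at 4 °C for 1 hour with 10% biotinylated, detergent-solubilized Sf9 membrane reagent. Streptavidin microbeads enriched the stained cells before FACS sorting into low and high (top ~1%) gates on anti-HA and streptavidin fluorescence. Each clone's polyreactivity label reflects its gate of origin.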
row,Sequence,polyreactivity (PSR sort gate)
1,QVQLVESGGGLVQAGGSHRLSCAASGSIFRQNAMGWYRQAPGKERELVAAITRGGGGTTYYADSVKGRFTISRDNAKNTVYLQMNSLKPEDTAVYYCAKAYEVRVEVDYWGQGTQVTVSS,low polyreactivity
2,QDQIGESGGGLVQAGGSLSLSCAASGTTIVNNAMGRNRQARWKERELVAAITQRGGRSSYADSVNGRFTISRDNAKNTVYLQMNSLKPEDTAVYYCATVATCRHKGKYNYLGQGTQVTVSS,low polyreactivity
3,QVQLVESGGGLVQAGGSLRLICAASGRTFGYNAMGWYRQAPGKEREFVAAISWSGGRTYYADSVKGRFTISRDNAKNTVYLQMNSLKPEHSAVYYCAAGFGDGPGNGYYTRYSWDDDYWGQGTQVTVSS,low polyreactivity
4,QVQLVESGGGLVQAGGSLRLSCAASGFTFGWYAMGWYRQSPGKERELVAAISYSGGSTYYADSVKGRFTISRDNAKNTVYLQMNSLKPEDTAVYYCNAVLRLRVDSWGQGTQVTVSS,high polyreactivity
5,QVQLVESGGGLVQAGGSLRLSCAASGRTFLVNAMGWYRQAPGKERELVAAITANGGNTYYADSVKGRFTISRDNAKNTVYLQMNSLKPEDTAVYYCAKLSHRGQSTGVDYWGQGTQVTVSS,low polyreactivity
6,QVQLVESGGGLVQAGGSLRLSCAASGGIFDTNAMGWYRQAPGKEREFVAAITGSGGSTYYADSVKGRFTISRDNAKNTVYLQMNSLKPEDTAVYYCAAPLSYYWVYIVRYGYDYWGQGTQVTVSS,low polyreactivity
7,QVQLVESGGGLVQAGGSLRLSCAASGYIFSYNAMGWYRQAPGKERELVAAITGDSGTYYADSVKGRFTISRDNAKNTVYLQMNSLKPEDTAVYYCATDPYIFPVFYDLYWGYNYWGQGTQVTVSS,low polyreactivity
8,QVQLVESGGGLVQAGGSLRLSCAASGITFYDKAMGWYREAPGKERELVAGISYDGDSTYADSVKGRFTISRDNAKNTVYLQMNSLKPEDTAVYYCAALGPYDWLWAGDYWGQGTQVTVSS,low polyreactivity
9,QVQLVESGGGLVQAGGSLRLSCAASGRTFVPNAMGWYRQAPGKERELVAAISWSGDSTYYADSVKGRFTISRDNAKNTVYLQMNSLKPEDTAVYYCAARYEFFYKAFDVDSWGQGTQVTVSS,low polyreactivity
10,QVQLVESGGGLVQAGGSLRLSCAASGFTVWLYAMGWYRQAPGKEREFVAAISTSGGSTYADSVKGRFTISRDNAKKTVYLQMNSLKPEDTAVYYCAADDLPSTGYDYWGQRTQVTVSS,low polyreactivity
11,QVQLVESGGGLVQAGGSLRLSCAASGSIFRFNAMGWYRPAPGKERELVAAISDSGGRTYYADSVKGRFTISRDNAKNTVYLQMNSLKPEDTAVYYCNAYVHTQGGDYWGQGTQVTVSS,high polyreactivity
12,QGQLVESGGGLVQAGGSLRLSCAASGSIFDLNAMGWYRQAPGKERELVAAISTGGGTYYADSVKGRFTISRDTAKNTVYLQMNRLKPEDTAVYYCNRVTRWTYNYWGQGTQVTVSS,high polyreactivity
13,QVQLVESGGGLVQAGGSLRLSCAASGLTFYYYAMGWYRQAPGKERELVAAISATGGRTDYADSVKGRFTISRDNAKNTVYLQMNSLKPADPAVYYCAADTPYLRRRRGMDYWGQGTQVTVSS,high polyreactivity
14,QVQLVESGGGLVQAGGSLRLSCAASGIIFWSSVMGWYRQAPGKERELVAAITFSGGSTYYADSVKGRFTISRDNAKNPVYLQMNSLKPEDTAVYYCAARYKLVRRYDYWGQGTQVTVSS,low polyreactivity
15,QVQLVESGGGLVQAGGSLRLSCAASGRIFGYYAMGWYRQAPGKERELVDSISSNGTSTYYADSVKGRFTISRDNAKNTVYLQMNSLKPEDTAVYYCAASYWYDKAYDYWGHGTQVTVSS,low polyreactivity
16,QVQLVESGGGLVQAGGSLRLSCAASGSIIYLYAMGWYRQAPGKERELVAAITSIGGSTYADSVKGRFTISRDNAKNTVYLQMNSLKPEDTAVYYCNTDEYPLTVQVQYYYWGQGTQVTVSS,low polyreactivity
17,QVQLVESGGGLVQAGGSLRLSCAASGSTFKSYAMGWYRQAPGKERELVAAISRSGGRTYYADSVKGRFTISRDNAKNTVYLQMNSLKPEDTAVYYCATGVKREGDYWGQGTQVTVSS,high polyreactivity
18,QVQLVESGGGLVQAGGSLRLSCAASGSTFALYAMGWYRQAPGKERELVAVITSGGSTYYADSVKGRFTISRDNAKNTVYLQMNSLKPEDTAVYYCAARRHVRKGPLGYWGQGTQVTVSS,high polyreactivity
19,QVQLVESGGGLVQAGGSLRLSCAASGSIFYYNAMGWYRQAPGQERELVAGINYSGGSTYYADSVKGRFTISRDNAKNTVYLQMNSLIPEDTADYYCAARPRYLNARKYYYWGLGTQVTVSS,high polyreactivity
20,QVQLVESGGGLVQAGGSLRLSCAASGFTFVSYAMGWYRQAPGKERELVAAISKRGGSTSYADSVKGRFTISRDNAKNTVYFQMNSLKPEDTAVYYCYNRSYAWSPHVDYWGQGTQVTVSS,high polyreactivity
21,QVQLVESGGGLVQAVGSLRLSCAASGSIYGYAMGWYIQAPGKERELVAAISGRGGRTYYADSVKGRFTISRDNAKNTVYLQMNSLKPEDTAVYYCNFQWRYPYHYTVDYWGQGTQVTVSS,high polyreactivity
22,QVQIVESGAGLVQAGGSLRLSCAASGSIYAPNAMGWYRQAPGKERELVAAISRSGGRTYYADSVKGRFTISRDNAKNTVYLQMNSLKPEDTAVYYCAADYKHQRTYGSWGQGTQVSVSS,high polyreactivity

row,Sequence,polyreactivity (PSR sort gate)
1,QVQLVESGGGLVQAGGSLRLSFAASGRIIGYYAMGWYRQAPGKERELVAAITRGGSTNYADSVKGRFTISRDNAKNTVYLQMNSLKPEDTAVYYCAADLARYGKRYDYWGQGTQVTVSS,low polyreactivity
2,QVQLVESGGGLVQAGGSLRLSCAASGSNFSYYDMGWYRQAPGKERELVAAISWNGGTTYYADSVKGRFTISRDNAKNTVYLQMNSLKPEDTAVYYCAATWDFYWAPYDSWGQGTQVTVSS,low polyreactivity
3,QVQLLESGGGFVQAGGSLRLSCAASGQTFHGNTMGWYRQAPGKERELVAAISFDGGNTYADSVKGRFTKSRDNAKTSVYLHMNSLKPEDSAVYYDYWGPGTQVTVSS,low polyreactivity
4,QVQLVESGGGLVQAGGSLRLSCAASGFTFRYNAMGWYRQAPGKERELVAAITYRGGSTYYADSVKGRFTISRDNAKNTVYLQMNSLKPEDTAVYYCAAVGDLWGYYWGQGSQVTVSS,low polyreactivity
5,QVQLVESGGGLVQAGGSLRLSCAASGRTFGSYAMGWYRQAPGKEREFVASISRRGGSTYYADSVKVRFTISRDNAKNTVYLQINSLKPEDTAVYYCAAGVPASWFDYWGQGTQVTVSS,high polyreactivity
6,QVQLVESGGGLFHAGGSLRLSCAASGSIFVRNVMGGYRQAPGKERELVAAISRSGVSTYYADSVKGRFTISRDNAKNTVSLQMNSLKPEDTAVSYCNAGWRRRNSTGYPWGYDYWGQGTQVTVSS,high polyreactivity
7,QVQLIESGGGLVQAGGSLRLSCAASGSIFAANAMGWYRQAPGKEREFVASISYTGASTYADSVKGRFTISRDNAKNTVYFQMNSLKPEDTAVYYCAKDGYWTGLDPYYYWGQGTQVTVSS,low polyreactivity
8,QVQLVESGGGLVQAGGRLRLSCAASGRTFSPYAMGWYREAPGKEREFVAASTWSAGRTYYADSVKGRFTISRDNAKNTVYLQMNSLKPEDTAVYYCNARDRSITYPRYDYWGQGTQVTVSS,high polyreactivity
9,QVQLVESGGGLVQAGGSLRLSCAASGRISVANAMGWYIQAPGKERELVARISEGVGSTYYADSVKGRFTISRDTAKNTVYLQMNSLKPEDTAVYYCAAYQDYVYSESLFSVSARMYYWGQGTQVTVSS,low polyreactivity
10,QVQLVESGGGLVQAGGSLRLSCASSGLIFGRNVMGWYRQAPGKERELVAAISWSGGRTYYADSVKGRFTISRDNAKNTVYLQMNSLKPEDTAVYYCAADDGPGFDYWGQGTQVTVSS,high polyreactivity
11,QVQLVESGGGLVQTGGSLRLSCAASGSTFNQYDMGWYRQAPGKERELVAAINRDGSTYYADSVKGRFTISRDNAKNTVYLQMNSLNPEDTAVYYWNAVGWYTYFYGSRKYNSWGQGTEVTVSS,low polyreactivity
12,QVQLVESGGGLVQAAGSLRISCAASGLIFGWNAMGWYRQAPGKERELVAAITSGGSTYYADSVKGRFTISRDNAKNTVYLQMNSLKPEDTAVYYCAAVYVLGKTGRVYGKYGYWGQGTQVTVSS,high polyreactivity
13,QVQLVESGGGLVQAGGSLRLSCAASGSTFSYYAMGWYRQAPWKERELVAASTAGGGSTYYADSVKGRFTISRDNAKNTVYLHMNSLKPEDTAVYYCNADQIFGPALNLWKLDYWGQGTQVTVSS,low polyreactivity
14,QVQLVESGGGLVQAGGSLRLSCAASGSIFDRYAMGWYRQAPGKERELVAAISRSGGSTYYADSVMGRFTISRDNAKNTVYLQMNSLKPEDTAVYYCAAYQHPGLRTSYEYWGQGTQVTVSS,low polyreactivity
15,QVQLVESGGGLVQAGGSLRLSCAASGSTFQNNAMGWYRQAPGKERELVATISRRGGSTYYADSVKGRFTISRDIAKNTVYLQMNSLKPEDTAVYYCTGRDYWGQGTQVTVSS,high polyreactivity
16,QVQLVESGGGLVQAGGSLRLSCAASGLIFTVNTMGWYRQAPGKERELVATIHTIGDGTNYADSVKGRFTISRDNAKNTVYLQMNSLKPEDTAVYYCAAYAGSVRPGDLYGYDYWGQGTQVTVSS,low polyreactivity
17,QVQLVESGGGLVQAGGSLSLSCAASGSTFYANAMGWYRQAPGKEREFVAAISYNGGSTYYADSVKGRFTISRDNAKNTVYFQMNSLKPEDTAVYYCNVDYDYPYYEVDYWGQGTQVTVSS,low polyreactivity
18,QVQLVESGGGLVQAGGSLRLSCAASGRTLIFYAMGWYRQAPGKERELVAAISGSGGRTYYADSVKGRFTISRDNAKNTVYLQMNSLKPEDTAVYYCNRRHSYPYDYWGQGTQVTVSS,high polyreactivity
19,QVQLVESGGGLVQAGGSLRLSCAASGSIFDRYAMGWYRQAPGKERELVAAISTGGSTNYADSVKGRFTISRDNAKNTVYLQMNSLKPEDTAVYYCAAERYWVFHGTISYKYDYWGQGTQVTVSS,low polyreactivity
20,QVQLVESGGGLVQAGGSLRFSCAASGPIFYNNAMGGYRQAPGKERELHAAISYSGGRTYYADSVKGRFTISRDNAKNTVYLQMNSLKPEDTAVYYCATRYARTAYIRSEYWGQGTQVTVSS,high polyreactivity
21,QVQLVESGGGLVQAGGSLRLSCADTGRTFSRNSMGWYIQAPGKERELVATITRGTITNYADSVKGRFTISRDNAMNTVYLQINSRKPEDTAVYYCNARTLFFPARNRCELSDYWGQGTQVTVSS,low polyreactivity
